{"source": "patent US20050025760A1", "about": "(KEIO UNIVERSITY, published 2005)", "binders": {"B1": {"name": "anti-Dsg3 monoclonal antibody AK23 (antibody, mouse IgG1, V domains shown)", "VH": "QVQLQQSGTELVKPGASVKLSCKSSGYTFTSYWINWVKQRPGQGLEWIGNINPSNGGINYNEKFKSKATLTVDKSSSTAYMQLKSLTSEDSAVYYCARGGYDGYPWGQGTTVTVS", "VL": "DIQMTQSPKFLLVSAGDRVTITCKASQSVSYDVAWYQQKPGQSPKLLISYASNRYTGVPDRFTGSGYGSDFTFTISTVQTEDLAVYFCQQDYSSPWTFGGGTKLELKR", "notes": "Mouse IgG1 kappa hybridoma antibody"}}, "key": {"[1]": {"target": "T1, recombinant protein mouse Dsg1-His (mouse, UniProt Q61495 50-564, limits assumed)", "T1 construct": "not shown: His tag", "T1 sequence (looked up)": "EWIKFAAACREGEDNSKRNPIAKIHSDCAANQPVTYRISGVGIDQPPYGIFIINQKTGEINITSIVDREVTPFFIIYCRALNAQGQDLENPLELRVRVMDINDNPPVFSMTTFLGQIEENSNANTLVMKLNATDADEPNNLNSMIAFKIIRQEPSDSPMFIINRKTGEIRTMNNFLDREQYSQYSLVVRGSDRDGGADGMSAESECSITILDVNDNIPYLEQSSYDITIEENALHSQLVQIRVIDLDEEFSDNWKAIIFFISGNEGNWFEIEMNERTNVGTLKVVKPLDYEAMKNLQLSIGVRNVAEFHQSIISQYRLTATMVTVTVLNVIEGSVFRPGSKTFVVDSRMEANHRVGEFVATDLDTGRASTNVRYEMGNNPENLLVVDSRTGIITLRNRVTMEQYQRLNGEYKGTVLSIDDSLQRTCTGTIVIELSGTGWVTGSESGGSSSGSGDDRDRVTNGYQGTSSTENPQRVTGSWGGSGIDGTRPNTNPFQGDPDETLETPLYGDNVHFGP", "test": "ELISA on recombinant mouse Dsg1-His", "from_the_text": "The baculovirus vectors, pEVmod-Dsg3-His and pEVmod-Dsg1-His, pEVmod-mouse Dsg3-His and pEVmod-mouse Dsg1 -His, that were constructed according to the method as described previously (J. Immunol. 159, 2010-2017, 1997) were used. These recombinant baculoviruses were infected to insect cells, High Five (Invitrogen Corporation), then the recombinant protein human Dsg3-His and Dsg1-His, recombinant protein mouse Dsg3-His and Dsg1-His were collected from the culture media, respectively. In addition, purification of these recombinant proteins was conducted using Ni-NTA column. These purified recombinant proteins were coated on ELISA (Enzyme Linked Immunosorbent Assay) plates, respectively, 50 μl each of the culture supernatant of the anti-Dsg3 monoclonal antibody-producing hybridoma was added to each well, and ELISA was practiced according to the method as previously described (J Clin Invest 105, 625-631, 2000). PV mouse model 1 serum with moderate degree of antibody titer was selected as a positive control, and 1 serum of normal mouse serum was selected as a negative control. Absorbance was determined at wavelength 450 nm (Bio-rad, Hercules, Calif. USA), and the index was shown by the following formula. Index={OD(specimen)−OD(negative control)}/{OD(positive control)−OD(negative control)}×100 A-2 (Living Cell Staining using Culture Mouse Keratinocyte PAM 212)"}, "[2]": {"target": "T2, inactivated Dsg3 protein having a pro-sequence (mouse, UniProt O35902 24-617, limits assumed)", "T2 construct": "the sentence on immunoblotting itself says only 'Dsg3'; also called protein with large molecular weight; not shown: His tag", "T2 sequence (looked up)": "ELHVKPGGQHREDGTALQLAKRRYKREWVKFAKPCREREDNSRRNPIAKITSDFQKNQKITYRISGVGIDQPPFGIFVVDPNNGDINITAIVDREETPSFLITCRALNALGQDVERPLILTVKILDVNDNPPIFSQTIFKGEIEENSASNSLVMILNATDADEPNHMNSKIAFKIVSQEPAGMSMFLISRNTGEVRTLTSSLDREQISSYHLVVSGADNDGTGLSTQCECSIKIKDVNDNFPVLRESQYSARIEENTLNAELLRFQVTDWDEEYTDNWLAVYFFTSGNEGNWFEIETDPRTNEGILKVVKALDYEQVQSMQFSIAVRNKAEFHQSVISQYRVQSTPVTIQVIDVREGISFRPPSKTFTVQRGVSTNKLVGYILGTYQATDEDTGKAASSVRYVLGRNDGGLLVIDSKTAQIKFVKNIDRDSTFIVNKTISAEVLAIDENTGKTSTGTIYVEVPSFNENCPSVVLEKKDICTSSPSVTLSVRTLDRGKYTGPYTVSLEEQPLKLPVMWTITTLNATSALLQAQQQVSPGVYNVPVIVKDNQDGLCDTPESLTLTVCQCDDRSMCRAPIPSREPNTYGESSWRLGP", "test": "immunoprecipitation and immunoblotting of recombinant Dsg3 (FIG. 7b)", "protocol": "Then 10 μl of protein G (Protein G sepharose 4 fast flow: Amersham Pharmacia Biotech, Buckinghamshire, England) was added and reacted overnight at […]. Centrifugation was conducted after the reaction, and 50 μl of SDS was added to the precipitate and boiled for 2 minutes. Each sample was subjected to electrophoresis with a 7.5% uniform gel plate for electrophoresis (multigel 7.5: Daiichi Pure Chemicals, Tokyo, Japan), transcribed to PVDF membrane, then blocked. Further, 100-fold diluted anti-6X histidine antibody (R&D systems, Inc. Minn., USA) was reacted for 1 hour at room temperature, washed (3 times) in TBS (Tris buffered saline), then 1000-fold diluted alkaline phosphatase-goat anti-mouse IgG (Zymed, San Francisco, Calif., USA) was reacted for 1 hour at room temperature, washed (3 times) in TBS, then developed.\nTo characterize the epitopes of monoclonal antibodes such as AK23 and the like, it was first determined whether the binding to Dsg3 of the antibodies is calcium-dependent or not. Recombinant mouse Dsg3-His was treated with or without EDTA, and then subjected to immunoprecipitation with the AK antibodies. EDTA treatment abolished the reactivity of AK19 and AK23 antibodies, but not the reactivity of the other AK antibodies (Table 3, FIG. 7a). […]"}}, "data": [{"binder": "B1", "values": [{"measurement": "binding result", "setting": "[1]", "result": "no binding"}, {"measurement": "binding result", "setting": "[2]", "result": "no binding"}]}]}
